Measured values from the supplement of paper PMC10567573.

B1: FCHSD1 (parent)
chain: LQEPGVFSPTPPQQFQPAGTDQVC
B2: CLCN6 (parent)
chain: VGEIVGIITRHNLTYEFLQARLRQ
B3: MMP1 (parent)
chain: FVRGDHRDNSPFDGPGGNLAHAFQ

Variants of: B1
Experiment: protein stability index of a GFP-peptide fusion (GPS, HEK-293T) (PSI 1-6); higher = more stable
Conditions: c terminus: a fixed tail appended
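Note: lentivirally expressed fusions sorted by FACS into six bins by GFP to DsRed ratio, PSI derived from sequencing read proportions per bin multiplied by bin number.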

Variant	protein stability index
F15C	4.17
F15G	4.68
T20L	3.61
Q16L	3.93
P12Q	4.45
P12G	4.5
P12L	3.96
P12I	4.11
P12F	3.48
P12D	5.07
P12C	4.02
P12W	3.5
P12V	3.69
P12H	4.23
P12S	4.46
P12M	4.09
P12Y	3.66
P12K	4.05
P12N	4.33
P12R	4.33
P12E	4.82
S8R	4.57
S8W	3.85
Q14V	4.1
Q14G	2.86

Variant	protein stability index
Q22W	2.94
P9N	4.04
P9H	4.29
P9Y	3.81
P9C	4.26
P9G	4.38
P9F	4.14
P9E	4.7
P9T	4.69
P9D	4.69
P9W	3.67
P9L	4.56
P9I	4.03
P9K	4.31
P9S	4.14
P9Q	4.65
P9V	4.3
P9R	4.26
P9M	4.38
P9A	4.57
Q13C	4.04
Q13V	4.26
Q13F	3.8
Q13E	3.75
Q13K	3.78

Variant	protein stability index
Q13R	4.07
Q13M	3.96
Q13D	4.55
Q13W	3.17
Q13Y	3.74
Q13N	4.11
Q13I	3.6
Q13G	3.89
Q13S	4.16
T10A	4.56
T10H	4.17
T10Y	3.38
T10G	4.16
T10C	3.52
T10F	3.5
T10N	3.98
T10R	3.54
T10E	4.38
T10L	4.16
T10V	3.96
T10M	3.82
T10W	3.35
T10K	4
T10S	4.34
T10D	4.67

Variant	protein stability index
T10Q	4.21
T10I	3.65
P11A	4.41
P11G	4.25
P11L	3.89
P11E	4.69
P11V	4.43
P11D	4.5
P11Y	3.65
P11R	3.9
P11T	4.31
P11M	4.17
P11Q	4.26
P11S	3.73
P11H	4.09
P11N	4.38
P11W	3.41
P11K	3.62
P11F	3.49
P11C	2.16
P11I	4.04
A18W	2.99

Variants of: B2
Experiment: as above
Conditions: c terminus: a fixed tail appended

Variant	protein stability index
V5Y	2.19
V5S	1.83
V5P	2.46
V5T	1.49
V5M	3.11
V5N	1.75
V5Q	1.37
V5E	1.76
V5G	2.29
V5A	1.89
V1I	2.88
V1D	2.41
V1T	1.65
V1W	2.47
V1C	2.26
V1H	2.82
V1E	2.25
V1S	2.31
V1R	1.58
V1L	1.76
V1F	2.41
V1N	3.06
V1K	2.18
V1P	1.44

Variant	protein stability index
T9N	2.88
T9G	2.63
T9K	1.29
T9R	1.4
T9F	2.35
T9D	1.92
T9P	2.78
T9S	2.77
T9L	1.89
T9C	2.71
Y15A	2.07
Y15K	1.47
Y15S	1.83
Y15D	1.51
Y15V	1.63
Y15F	2.95
Y15G	1.65
Y15P	1.62
Q24C	3.27
Q24N	2.8
Q24K	1.61
Q24V	2.87
Q24A	4.07
Q24S	2.53

Variant	protein stability index
T14E	1.22
T14N	2.03
T14F	2.92
T14A	3.01
E16Q	1.93
E16R	2.46
E16K	1.52
E16G	1.02
E16L	3.17
E16P	1.8
E16S	2.17
E3Q	3.17
E3C	2.72
E3W	2.42
E3Y	3.28
E3P	3.11
E3H	2.38
E3F	1.43
I4V	2.06
I4Y	2.53
I4N	2.37
I4K	2.15
I4P	2.88
I4A	2.1

Variant	protein stability index
I4S	2.23
I4F	1.52
I4H	2.02
I4Q	2.38
I4E	2.51
I4D	2.66
I4M	2.33
I4C	2.18
H11V	2.32
H11D	2.48
H11G	1.76
N12H	3.27
N12C	2.21
N12A	5
N12I	1.15
N12R	2.69
N12G	5.11
N12D	2.21
N12Q	4
Q19S	2.49
Q19P	1.62
Q19Y	1.01
Q19I	3.35
Q19E	2.47

Variant	protein stability index
Q19K	4.39
Q19G	1.52
R21K	1.06
R21T	2.69
R21G	1.89
R21N	2.01
R21V	1.67
I7Q	2.72
I7C	2.31
I7P	2.56
I7Y	3.15
I7N	2.18
I7K	1.7
I7E	2.07
I7D	2.38
I7T	1.73
I7L	2.53
G6S	2.95
G6T	3.72
F17C	1.8
F17G	3.15
F17Q	2.76
F17T	1.87
F17H	1.04

Variant	protein stability index
F17E	2.01
F17P	2.11
F17S	2.71
F17I	2.02
L22P	1.53
L22H	1.93
L22R	2.47
L22D	1.51
L22S	2.58
L22M	2.37
L22E	1.04
L22N	1.15
I8S	2.65
I8H	1.79
I8Q	2.47
I8E	3.29
I8L	2.03
I8N	3.2
I8A	1.27
I8C	1.16
I8G	2.2
I8R	2.64
R23E	1.2
R23F	2.58

Variant	protein stability index
R23Q	1.69
R23Y	4.23
G2V	2.66
G2H	2.81
G2T	2.6
G2C	2.06
G2N	3
G2K	2.53
G2Y	1.98
G2D	2.23
G2Q	1.13
L13Q	1.69
L13A	1.63
L13W	3.73
L13V	2.04
L13I	3.13
L13F	2.15
L13G	1.7
L13H	1.51
L13C	2.08
L13E	2.18
L13M	1.86
L18R	2.55
L18G	1.58

Variant	protein stability index
L18Q	2.07
L18N	1.6
L18K	2.67
L18E	3.96
L18S	1.02
L18I	2.62
L18Y	4.04
L18A	2.67
L18P	2.81
A20S	2.02
A20I	2.56
R10L	4.12
R10K	2.19
R10P	1.75
R10T	3.15
R10E	2.92
R10Y	1.93
R10N	2.88

Variants of: B3
Experiment: as above
Conditions: c terminus: a fixed tail appended

Variant	protein stability index
F1P	3.59
F1K	3.56
F1T	3.78
F1I	2.82
F1A	3.67
F1S	3.33
F1N	3.66
F1Q	4.01
F1G	3.33
F1M	3.32
F1D	4.41
F1C	2.64
F1W	2.48
F1Y	1.81
F1V	2.83
F1H	3.28
F1R	3.36
F1L	3.52
F1E	3.97
R3N	2.34
R3P	1.44
R3C	3.82
R3K	1.45
R3A	1.63
R3H	1.85
R3M	1.57

Variant	protein stability index
R3L	2.13
R3F	1.69
R3I	2.11
R3E	2.73
R3D	1.73
R3G	1.3
V2Y	3.15
V2H	2.37
V2A	1.66
V2L	3.03
V2E	3.97
V2C	1.63
V2I	1.92
V2S	2.76
V2W	2.25
V2G	3.03
V2M	3.03
V2D	3.58
V2F	2.61
V2Q	2.75
V2P	2.85
V2R	3.48
V2K	3.1
V2T	3.07
V2N	3.53
